B1: KL2B467 (Fab) (Fab, V domains shown)
VH: QVQLVESGGGVVQPGRSLRLSCAASGFTFSYYGMHWVRQAPGKGLEWVAFISYDGSNKYYADSVKGRFTISRDNSKNTLYLQMNSLRAEDTAVYYCAHLPYSGSYWAFDYWGQGTQVTVSS
VL: QSVLTQPPSVSVAPGQTASITCGGDNIGSKSVHWYQQKPGQAPVLVVYDNSDRPSGIPERFSGSNSGTTATLTISRVEAGDEADYYCQVWDSSSDHPVVFGGGTKVTV
B2: KL2B242 (Fab) (Fab, V domains shown)
VH: QVQLQESGPGLVKPSETLSLTCTVSGGSISSYYWSWLRQPAGSGLEWIGRLYVSGFTNYNPSLKSRVTLSLDPSRNQLSLKLSSVTAADTAVYYCAGDSGNYWGWFDPWGQGTLVTVSS
VL: SYELTQPPSVSVSPGETASITCSGDQLGENYACWYQQKPGQSPVLVIYQDSKRPSGIPERFSGSNSGNTATLTISGTQALDEADYYCQAWDNSIVVFGGGTKLTVL
B3: KL2B30 (Fab) (Fab, V domains shown)
VH: QVQLQESGPGLVKPSETLSLTCTVSGGSISSYYWSWIRQPPGKGLEWIGYIYYSGSTNYNPSLKSRVTISVDTSKNQFSLKLSSVTAADTAVYYCAGTTIFGVVTPNFYYGMDVWGQGTTVTVSS
VL: DIQMTQSPSFLSASVGDRVTITCRASQGISSYLAWYQQKPGKAPKFLIYAASTLQSGVPSRFSGSGSGTEFTLTISSLQPEDFATYYCQQLNSYPLTFGGGTKVEIK
B4: KL2B53 (Fab) (Fab, V domains shown)
VH: EVQLVESGGGVVQPGRSLRLSCVASGFTFSSYDIHWVRQAPGKGLEWVAIISYDGSKKDYTDSVKGRFTISRDNSKNTLYLQMDSLRVEDSAVYSCARESGWSHYYYYGMDVWGQGTMVTVSS
VL: DIVMTQSPSSLSASVGDRVTITCRASQDISNYLAWYQQKPGKVPKFLIYAASTLHSGVPSRFSGSGSGTDFTLTISSLQPEDVATYYCQKYNSAPYTFGQGTRLEIK
B5: KL2B494 (Fab) (Fab, V domains shown)
VH: QVQLVESGGGLVQPGGSLRLSCAASGFTFSHYAMSWVRQAPGKGLEWVSTIGGSGGSTYYADSVKGRFTISRDNSKNTLYLQMNSLRAEDTAVYYCAKPHIVMVTALLYDGMDVWGQGTMVTVSS
VL: SSELTQPPSVSVAPGQTARITCGGNNIGSKSVHWYQQKPGQAPVLVVYDDSDRPSGIPERFSGSNSGNTATLTISRVEAGDEADYYCQVWDSSSDHVVFGGGTKLTVL

T1 sequence (P20151 19-261): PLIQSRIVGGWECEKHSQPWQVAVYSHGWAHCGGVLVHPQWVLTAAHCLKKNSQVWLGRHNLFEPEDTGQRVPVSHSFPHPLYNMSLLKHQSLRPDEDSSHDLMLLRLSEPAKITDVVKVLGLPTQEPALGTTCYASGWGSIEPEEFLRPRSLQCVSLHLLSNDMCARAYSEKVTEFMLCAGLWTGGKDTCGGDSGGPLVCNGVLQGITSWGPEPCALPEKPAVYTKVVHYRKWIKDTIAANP

This assay concerns the target T1, soluble human kallikrein related peptidase 2 (hK2) protein (human, UniProt P20151 19-261).
T1 construct: The stated signal peptide is left out here; also called soluble hK2; KLK2
As to the kind of experiment: SPR; antibody captured by anti-Fc antibody, soluble hK2 injected; 1:1 Langmuir fit. (Surface plasmon resonance follows binding to a sensor surface in real time, without labels.)
Method: Affinity of selected hK2 antibodies for soluble hK2 was measured by surface plasmon resonance (SPR). […] Antibodies were captured on a sensor chip coated with an anti-Fc antibody followed by injection of soluble hK2 at various concentrations and specified association and dissociation times. Post dissociation, the surface was regenerated with an appropriate solution to prepare for the next interaction. Kinetic information (on-rate and off-rate constants) were extracted by fitting sensorgrams to the 1:1 Langmuir model. Binding affinity (KD) are reported as the ratio of rate constants (koff/kₒₙ).
For B1, the Kd (in general, a measure of binding affinity in units of concentration) worked out at 0.078 nM.
Molecule B2 had a Kd of 0.04 nM.
With B3 the figure was 0.46 nM; with B4, 0.08 nM.
The molecule B5 returned a Kd of 0.053 nM.

Values taken from patent US20250099635A1 (Janssen / Centocor, published 2025).
